Assay results from article PMC3105379.
Like-named read-outs stand apart in the source and are kept apart here.

Legend:
Test in all cases: other fluorescence titration
[1] = biological target: BIQ, fluorescent reporter containing an IQ domain sequence derived from neuromodulin (UniProt P17677)
[2] = biological target: BIQG^6A, variant of BIQ with replacement A for the G at position 6
[3] = biological target: BIQG^6M, variant of BIQ with replacement M for the G at position 6
[4] = biological target: BIQ, fluorescent reporter containing an IQ domain sequence derived from neuromodulin (UniProt P17677); remark: listed apart in the source
[5] = biological target: BIQG^6R, variant of BIQ with replacement R for the G at position 6
[6] = biological target: BIQG^6A, variant of BIQ with replacement A for the G at position 6; remark: listed apart in the source

Kd [1]: 2.4 µM
Kd [2]: 5.4 µM
Kd [3]: 0.4 µM
Kd [4]: 2.9 µM
Kd [5]: 0.4 µM
Kd [6]: 0.9 µM
Substance: calmodulin (native CaM) (from UniProt P0DP23 1-149) (natural protein)
